Data on one protein can be found in US20020086331.

The target in the series is T1, Nit domain of C. elegans NitFhit, O76463.
T1 chain: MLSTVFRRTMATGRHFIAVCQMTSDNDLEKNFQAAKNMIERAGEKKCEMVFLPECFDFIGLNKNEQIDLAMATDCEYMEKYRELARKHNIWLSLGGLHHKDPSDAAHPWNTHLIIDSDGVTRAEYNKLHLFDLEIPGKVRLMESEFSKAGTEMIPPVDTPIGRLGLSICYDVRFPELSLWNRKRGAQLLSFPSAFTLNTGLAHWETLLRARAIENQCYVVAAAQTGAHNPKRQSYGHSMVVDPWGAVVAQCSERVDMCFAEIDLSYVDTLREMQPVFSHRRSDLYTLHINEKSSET

B1: Fhit domain of C. elegans NitFhit (protein)
chain: GGLKFARFNIPADHIFYSTPHSFVFVNLKPVTDGHVLVSPKRVVPRLTDLTDAETADLFIVAKKVQAMLEKHHNVTSTTICVQDGKDAGQTVPHVHIHILPRRAGDFGDNEIYQKLASHDKEPERKPRSNEQMAEEAVVYRNLM
Consider B1, for which the “activity of worm NitFhit on ApppBODIPY relative to human Fhit (kcat/Km)” value is given as “worm NitFhit displays only 22% of the activity of human Fhit on ApppBODIPY” and the “activity of worm NitFhit on GpppBODIPY relative to human Fhit (kcat/Km)” value is on record as “it displays 109% of the activity of human Fhit on GpppBODIPY”.
